Measured values taken from patent US20040013664A1.

Biological target: Fas receptor on human cells (Jurkat, HT-29) (human) (UniProt P25445)
Assay: cell-based or functional assay

Sequence of Fas receptor on human cells (Jurkat, HT-29) (human) (P25445 26-335): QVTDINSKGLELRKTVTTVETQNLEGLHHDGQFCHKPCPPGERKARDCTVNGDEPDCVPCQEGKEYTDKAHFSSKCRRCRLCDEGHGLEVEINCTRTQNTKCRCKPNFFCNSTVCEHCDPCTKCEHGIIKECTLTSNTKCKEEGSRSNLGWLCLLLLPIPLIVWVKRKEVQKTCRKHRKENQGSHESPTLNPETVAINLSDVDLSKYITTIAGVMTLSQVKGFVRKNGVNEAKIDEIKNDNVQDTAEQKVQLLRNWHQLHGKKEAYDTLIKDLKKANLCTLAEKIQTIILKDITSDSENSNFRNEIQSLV

sFas ligand (Alexis Corporation, FLAG epitope tag at its N-terminus) (from UniProt P48023 103-281)
% Cells undergoing apoptosis (Jurkat, annexin/propidium iodide FACS); FasL (20 ng): 8.87%
decrease in Jurkat cell viability (ALOMAR blue): 50%
